Data reported in patent US7033590 (BAXTER AKTIENGESELLSCHAFT, dated 2006).
Non-standard residues stand in square brackets, D forms with d. No end group written: not given here.

What was measured:
[1] = molecular target: T1, human activated factor IX (human FIXa) (human, UniProt P00740 47-191; P00740 227-461); experiment: cell-based or functional assay
[2] = molecular target: T2, human coagulation factor (F) IX (human, UniProt P00740 47-461); experiment: Western blot and ELISA
T2 construct: also called Factor IX; factor IX

[3] = molecular target: T1, human activated factor IX (human FIXa); experiment: cell-based or functional assay; remark: listed apart in the source
[4] = molecular target: T1, human activated factor IX (human FIXa); experiment: cell-based or functional assay; remark: listed apart in the source

T2 sequence (P00740 47-461 limits assumed): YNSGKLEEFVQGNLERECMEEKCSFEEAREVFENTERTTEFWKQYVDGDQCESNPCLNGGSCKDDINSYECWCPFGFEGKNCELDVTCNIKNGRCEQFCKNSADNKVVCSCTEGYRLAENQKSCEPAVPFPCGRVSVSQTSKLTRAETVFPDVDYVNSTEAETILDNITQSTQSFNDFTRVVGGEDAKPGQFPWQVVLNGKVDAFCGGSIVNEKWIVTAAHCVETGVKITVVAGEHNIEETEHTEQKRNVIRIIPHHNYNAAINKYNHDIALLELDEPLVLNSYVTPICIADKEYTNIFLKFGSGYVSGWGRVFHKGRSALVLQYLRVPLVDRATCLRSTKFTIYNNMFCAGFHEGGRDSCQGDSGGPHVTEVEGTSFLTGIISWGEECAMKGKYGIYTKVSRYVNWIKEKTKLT

Molecule	clotting time, aPTT one-stage assay (Table 4), 2.2 nM FIXa, peptide 1.25 µM, average (IZ buffer 96) [4] [s]	clotting time, aPTT one-stage assay (Table 4), 2.2 nM FIXa, peptide 1.25 µM, duplicate 1 (IZ buffer 96) [4] [s]	clotting time, aPTT one-stage assay (Table 4), 2.2 nM FIXa, peptide 1.25 µM, duplicate 2 (IZ buffer 96) [4] [s]	clotting time, aPTT one-stage assay (Table 4), 2.2 nM FIXa, peptide 2.5 µM, average (IZ buffer 96) [4] [s]	clotting time, aPTT one-stage assay (Table 4), 2.2 nM FIXa, peptide 2.5 µM, duplicate 1 (IZ buffer 96) [4] [s]	clotting time, aPTT one-stage assay (Table 4), 2.2 nM FIXa, peptide 2.5 µM, duplicate 2 (IZ buffer 96) [4] [s]	clotting time, aPTT one-stage assay (Table 4), 2.2 nM FIXa, peptide 5 µM, average (IZ buffer 96) [4] [s]	clotting time, aPTT one-stage assay (Table 4), 2.2 nM FIXa, peptide 5 µM, duplicate 1 (IZ buffer 96) [4] [s]	clotting time, aPTT one-stage assay (Table 4), 2.2 nM FIXa, peptide 5 µM, duplicate 2 (IZ buffer 96) [4] [s]	clotting time, aPTT one-stage assay (Table 4), 2.2 nM FIXa, peptide 7.5 µM, average (IZ buffer 96) [4] [s]	clotting time, aPTT one-stage assay (Table 4), 2.2 nM FIXa, peptide 7.5 µM, duplicate 1 (IZ buffer 96) [4] [s]	clotting time, aPTT one-stage assay (Table 4), 2.2 nM FIXa, peptide 7.5 µM, duplicate 2 (IZ buffer 96) [4] [s]	clotting time, aPTT one-stage assay (Table 4), 2.2 nM FIXa, peptide 10 µM, average (IZ buffer 96) [4] [s]	clotting time, aPTT one-stage assay (Table 4), 2.2 nM FIXa, peptide 10 µM, duplicate 1 (IZ buffer 96) [4] [s]	clotting time, aPTT one-stage assay (Table 4), 2.2 nM FIXa, peptide 10 µM, duplicate 2 (IZ buffer 96) [4] [s]	clotting time, aPTT one-stage assay (Table 4), 2.2 nM FIXa, peptide 12.5 µM, average (IZ buffer 96) [4] [s]	clotting time, aPTT one-stage assay (Table 4), 2.2 nM FIXa, peptide 12.5 µM, duplicate 1 (IZ buffer 96) [4] [s]	clotting time, aPTT one-stage assay (Table 4), 2.2 nM FIXa, peptide 12.5 µM, duplicate 2 (IZ buffer 96) [4] [s]	clotting time, aPTT one-stage assay (Table 4), 2.2 nM FIXa, peptide 15 µM, average (IZ buffer 96) [4] [s]	clotting time, aPTT one-stage assay (Table 4), 2.2 nM FIXa, peptide 15 µM, duplicate 1 (IZ buffer 96) [4] [s]	further results
unspecific mouse IgG (antibody)	–	–	–	–	–	–	–	–	–	–	–	–	–	–	–	–	–	–	–	–	clotting time, aPTT one-stage assay, FVIII deficient plasma, 50 ng FIXa, 0.23 µg antibody [1]: 104 s; clotting time, aPTT one-stage assay, FVIII deficient plasma, 50 ng FIXa, 0.34 µg antibody [1]: 104 s; clotting time, aPTT one-stage assay, FVIII deficient plasma, 50 ng FIXa, 0.45 µg antibody [1]: 102 s; clotting time, aPTT one-stage assay, FVIII deficient plasma, 50 ng FIXa, 0.9 µg antibody [1]: 102 s; clotting time, aPTT one-stage assay, FVIII deficient plasma, 50 ng FIXa, 1.35 µg antibody [1]: 103 s; clotting time, aPTT one-stage assay, FVIII deficient plasma, 50 ng FIXa, 1.8 µg antibody [1]: 102 s; clotting time, aPTT one-stage assay, FVIII deficient plasma, 50 ng FIXa, 2.25 µg antibody [1]: 103 s; clotting time, aPTT one-stage assay, FVIII deficient plasma, 50 ng FIXa, 4.5 µg antibody [1]: 103 s; clotting time, aPTT one-stage assay, FVIII deficient plasma, 50 ng FIXa, 9 µg antibody [1]: 102 s
Factor VIII (from UniProt P00451 20-2351)	–	–	–	–	–	–	–	–	–	–	–	–	–	–	–	–	–	–	–	–	clotting time, aPTT one-stage (Pathromtin SL), FVIII deficient plasma, 2.2 nM human FIXa, FVIII 6.25 mU/ml, average (IZ buffer 108) [1]: 59 s; clotting time, aPTT one-stage (Pathromtin SL), FVIII deficient plasma, 2.2 nM human FIXa, FVIII 6.25 mU/ml, duplicate 1 (IZ buffer 107.9) [1]: 58.6 s; clotting time, aPTT one-stage (Pathromtin SL), FVIII deficient plasma, 2.2 nM human FIXa, FVIII 6.25 mU/ml, duplicate 2 (IZ buffer 108.7) [1]: 58.9 s; clotting time, aPTT one-stage (Pathromtin SL), FVIII deficient plasma, 2.2 nM human FIXa, FVIII 12.5 mU/ml, average (IZ buffer 108) [1]: 53 s; clotting time, aPTT one-stage (Pathromtin SL), FVIII deficient plasma, 2.2 nM human FIXa, FVIII 12.5 mU/ml, duplicate 1 (IZ buffer 107.9) [1]: 52.9 s; clotting time, aPTT one-stage (Pathromtin SL), FVIII deficient plasma, 2.2 nM human FIXa, FVIII 12.5 mU/ml, duplicate 2 (IZ buffer 108.7) [1]: 53.6 s
irrelevant monoclonal antibody #8860 (antibody, V domains shown, Tested as the monoclonal antibody) VH: EVQLQQSGPELVKPGASVKISCKASGYAFSSSWMNWVKQRPGQGLEWIGRIYPGNGDTNYNGKFKGKATLTADKSSSTAYMQLSSLTSVDSAVYFCADGNVYYYAMDYWGQGTSVTVSS VL: QIVLTQSPASLAVSLGQRATISCRASKSVSTSGYSYMHWYQQKPGQPPKLLIYLASNLESGVPARFSGSGSGTDFTLNIHPVEEEDAATYYCQHSRELPRTFGGGTKLEIKR	–	–	–	–	–	–	–	–	–	–	–	–	–	–	–	–	–	–	–	–	binding result [2]: no binding
monoclonal antibody 198/B1 (antibody, V domains shown) VH: EVQLQESGGGLVKPGGSLKLSCAASGFTFSSYTMSWVRQTPEKRLEWVATISSGGSSTYYPDSVKGRFTISRDNAKNTLYLQMSSLRSEDTAMYYCTREGGGFTVNWYFDVWGAGTLVTVSA VL: ENVLTQSPASLAVSLGQRATISCRASESVDSYGYNFMHWYQQIPGQPPKLLIYRASNLESGIPARFSGSGSRTDFTLTINPVEADDVATYYCQQSNEDPLTFGTGTRLEIKR	–	–	–	–	–	–	–	–	–	–	–	–	–	–	–	–	–	–	–	–	amidolytic activity of FIXa (cleavage of CH3SO2-D-CHG-Gly-Arg-pNA, OD405), 20 mU FIXa (Stago), various amounts of antibody [3]: ≥ 2 fold
[dR][dR][dR]EGGGYYVNWYFD[dR][dR][dR] [peptide A1/3-Rd]	96	96.6	96	95	94.4	94.7	86	86	85.1	82	80.9	82.2	76	74.2	77.2	73	72.3	73.7	75	76.1	clotting time, aPTT one-stage assay (Table 4), 2.2 nM FIXa, peptide 15 µM, duplicate 2 (IZ buffer 96) [4]: 74.4 s
[dR][dR][dR]GEYGVYWNGDFY[dR][dR][dR] [peptide A1/3-Rd-srmb]	103	101	105	105	105	104	108	108	108	107	108	107	108	107	108	108	108	108	113	113	clotting time, aPTT one-stage assay (Table 4), 2.2 nM FIXa, peptide 15 µM, duplicate 2 (IZ buffer 96) [4]: 112 s
RRREGGGYYVNWYFDRRR [peptide A1/3]	95	94.4	95	93	93.6	93.3	89	89.7	88.3	81	80.7	80.5	73	72	73.2	67	65	68	56	56.1	clotting time, aPTT one-stage assay (Table 4), 2.2 nM FIXa, peptide 15 µM, duplicate 2 (IZ buffer 96) [4]: 55.5 s
